Data as given in publication PMC6547859 (The Journal of Experimental Medicine, 2019).

Target: the molecule itself
Test: SEC

B1: FLAG-tagged Regnase-1, full-length, phosphorylated (Expi293F, coexpressed with Myc-Act1 and HA-TBK1 or HA-IKKi) (natural protein, UniProt Q5D1E7 1-596, looked up)
chain: MSDPCGTKPVQESNPTMSLWSLEDRHSSQGRPQPDQDPVAKEAPTSELQMKVDFFRKLGYSSSEIHSVLQKLGVQADTNTVLGELVKHGSATERECQALTAPSPQPPLVPRGGSTPKPSTLEPSLPEEDREGSDLRPVVIDGSNVAMSHGNKEVFSCRGILLAVNWFLERGHTDITVFVPSWRKEQPRPDVPITDQHILRELEKKKILVFTPSRRVGGKRVVCYDDRFIVKLAFESDGVVVSNDTYRDLQGERQEWKRFIEERLLMYSFVNDKFMPPDDPLGRHGPSLDNFLRKKPLPSEHRKQPCPYGKKCTYGIKCRFFHPERPSRPQRSVADELRANALLSPPRTPVKDKSSQRPSPASQSSSVSLEAEPGSLDGKKLGARSSPGPHREGSPQTCAPAGRSLPVSGGSFGPTEWLAHTQDSLPYTSQECLDSGIGSLESQMSELWGVRGGSPGESGPTRGPYAGYHSYGSKVPAAPSFSPFRPAMGAGHFSVPTDYVPPPPTYPSREYWSEPYPLPPPTPVLQEPQRPSPGAGGGPWGRVGDLAKERAGVYTKLCGVFPPHLVEAVMRRFPQLLDPQQLAAEILSYKSQHLSE
modifications: phosphorylated by coexpression with Act1 and TBK1 or IKKi; phosphorylation sites identified: Ser439, Ser494, Thr505, Ser508, Ser513
For B1, the “stoichiometry N” value was 3.
